Data on one molecule can be found in patent US20110038920A1, “WOUND HEALING COMPOSITIONS AND TREATMENTS” (priority 2008, published 2011).

For the assay, the system named is OPN expression in Swiss 3T3 fibroblasts. In words: Induction of OPN expression in fibroblasts by growth factors/cytokines (Western blot). The settings on record: 8 h; PDGF-BB 20, EGF 100, TGFβ1 10, TGFβ3 10, IL-6 50, TNFα 10 ng/ml. It is filed as cell-based. As to the method:
Protein samples (20 μg; collected in T-PER® Reagent; PIERCE Biotechnology) were separated on Tris-Glycine Gels (Invitrogen), transferred to PVDF, and blotted according to standard protocols (antibody details are provided above).
Swiss 3T3, J774.1 macrophages, and RBL mast cells were cultured in DMEM+10% fetal calf serum. Primary neutrophils were harvested by peritoneal lavage 4 h post-thioglycollate-induced peritonitis, and primary macrophages were derived from mouse bone marrow and activated with LPS (500 ng/ml).

B1: TGFβ3: growth factor/cytokine, BioVision (protein, UniProt P10600 301-412, looked up)
Transforming growth factor …: ALDTNYCFRNLEENCCVRPLYIDFRQDLGWKWVHEPKGYYANFCSGPCPYLRSADTTHSTVLGLYNTLNPEASASPCCVPQDLEPLTILYYVGRTPKVEQLSNMVVKSCKCS
modifications: Transforming growth factor beta-3
notes: growth factor/cytokine, BioVision
Consider B1, for which the “ability to upregulate OPN expression in Swiss 3T3s” value was “not”.
